Test results taken from patent publication US20040053278A1 (JAPANESE FOUNDATION FOR CANCER RESEARCH, published 2004).

T1: wild type (wt) HA-tagged TβR-I (UniProt P36897 34-503, limits assumed)
T1 construct: whole, on cells; also called wild type TβR-I; TGF-β type I receptor
T1 sequence (looked up): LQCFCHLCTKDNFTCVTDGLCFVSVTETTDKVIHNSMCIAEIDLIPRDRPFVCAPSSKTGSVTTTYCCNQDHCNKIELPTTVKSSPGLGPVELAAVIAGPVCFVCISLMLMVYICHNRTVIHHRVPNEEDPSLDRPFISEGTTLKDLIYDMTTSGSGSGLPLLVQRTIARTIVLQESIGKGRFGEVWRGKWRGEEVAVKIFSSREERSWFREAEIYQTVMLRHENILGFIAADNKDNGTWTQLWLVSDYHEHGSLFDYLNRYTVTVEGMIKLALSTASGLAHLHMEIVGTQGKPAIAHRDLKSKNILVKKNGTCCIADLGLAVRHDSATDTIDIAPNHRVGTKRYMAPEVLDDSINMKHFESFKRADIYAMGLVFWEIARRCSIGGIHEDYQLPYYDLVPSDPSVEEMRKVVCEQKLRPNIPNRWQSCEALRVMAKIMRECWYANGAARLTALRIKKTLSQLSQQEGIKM

T2: Smad6 (epitope-tagged, heteromerization experiment of Example 4) (mouse, UniProt O35182 1-495)
T2 construct: Whole coding region of mouse Smad6, expressed inside COS-7 cells
T2 sequence: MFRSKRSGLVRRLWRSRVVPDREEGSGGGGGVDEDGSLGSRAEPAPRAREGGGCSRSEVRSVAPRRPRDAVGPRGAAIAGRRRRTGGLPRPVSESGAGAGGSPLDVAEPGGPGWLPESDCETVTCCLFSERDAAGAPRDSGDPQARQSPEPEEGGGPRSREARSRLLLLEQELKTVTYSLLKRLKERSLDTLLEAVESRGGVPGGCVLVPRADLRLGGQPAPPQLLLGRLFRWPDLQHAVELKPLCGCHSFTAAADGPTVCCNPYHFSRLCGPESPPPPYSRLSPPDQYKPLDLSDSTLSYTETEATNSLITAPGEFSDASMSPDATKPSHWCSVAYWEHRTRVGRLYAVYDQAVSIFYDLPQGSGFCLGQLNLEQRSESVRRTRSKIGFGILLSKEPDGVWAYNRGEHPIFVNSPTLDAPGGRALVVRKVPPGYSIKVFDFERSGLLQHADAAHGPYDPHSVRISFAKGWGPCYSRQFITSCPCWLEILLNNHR


How the values were obtained:
[1] = molecular target: T1, wild type (wt) HA-tagged TβR-I; assay: affinity cross-linking with 125I-TGF-β1, anti-FLAG immunoprecipitation from COS-7 lysates, SDS-PAGE and autoradiography
From the text: The interaction of Smad6 with the type I receptors was examined in affinity cross-linking assays. COS-7 cells were transfected with FLAG-tagged Smad6 (F-Smad6) or FLAG-tagged Smad2 (F-Smad2) in combination with the wild type (wt) or kinase-defective (KR) HA-tagged TβR-I and hexahistidine-tagged TβR-II. Cells were affinity labeled with ¹²⁵I-TGF-β1 and lysates were immunoprecipitated with anti-HA antibody or anti-FLAG M2 antibody. Immune complexes were subjected to SDS-PAGE and autoradiography. Smad6 bound to both wild type and kinase-defective TβR-I depending on the kinase activity of TβR-II. […] Similarly to Smad2, the binding of Smad6 to TβR-I required the kinase activity of TβR-II (FIG. 2a). Smad6, however, stably bound to the wild type TβR-I.

[2] = molecular target: T2, Smad6 (epitope-tagged, heteromerization …); assay: co-immunoprecipitation and Western blot from transfected COS-7 cells
From the text: COS-7 cells were transiently transfected using DMRIE-C (Gibco/BRL, Gaithersburg, Md.). [³²P]orthophosphate- or [³⁵]methionine/cysteine-labeling and immunoprecipitation were done as described by Nakao et al. (J. Biol. Chem. 272:2896-2900, 1997). For Western blot of the immunoprecipitated proteins, tagged proteins were detected by chemiluminescence (ECL, Amersham, Arlington Heights, Ill.).
Smad2 heteromerizes with Smad4 upon phosphorylation by TβR-I (Lagna et al., 1996). It was recently shown that TGF-β also induces association of Smad2 and Smad3 (Nakao et al., EMBO. J. 16:5353-5362, 1997). The effect of Smad6 on the heteromerization of these Smads was examined (FIG. 4). COS-7 cells were transfected with the indicated combination of plasmids and subjected to immunoprecipitation followed by Western blot detection. Expression levels of Smad2 (bottom), Smad4 (middle), and Smad6 (middle) were monitored.

| binding result [1] | binding result [2] | Binder |
| --- | --- | --- |
| no binding |  | FLAG-tagged Smad2 (other, not shown: small tags and cut ends, Expressed inside COS-7 cells; also called F-Smad2) SSILPFTPPVVKRLLGWKKSAGGSGGAGGGEQNGQEEKWCQKAVKSLVKKLKKTGRLDELEKAITTQNCNTKCVTIPSTCSEIWGLSTANTVDQWDTTGLYSFSEQTRSLDGRLQVSHRKGLPHVIYCRLWRWPDLHSHHELKAIENCEYAFNLKKDEVCVNPYHYQRVETPVLPPVLVPRHTEILTELPPLDDYTHSIPENTNFPAGIEPQSNYIPETPPPGYISEDGETSDQQLNQSMDTGSPAELSPTTLSPVNHSLDLQPVTYSEPAFWCSIAYYELNQRVGETFHASQPSLTVDGFTDPSNSERFCLGLLSNVNRNATVEMTRRHIGRGVRLYYIGGEVFAECLSDSAIFVQSPNCNQRYGWHPATVCKIPPGCNLKIFNNQEFAALLAQSVNQGFEAVYQLTRMCTIRMSFVKGWGAEYRRQTVTSTPCWIELHLNGPLQWLDKVLTQMGSPSVRCSSMS |
|  | no binding | Smad2 (epitope-tagged, heteromerization experiment of Example 4) (other, not shown: small tags and cut ends) SSILPFTPPVVKRLLGWKKSAGGSGGAGGGEQNGQEEKWCQKAVKSLVKKLKKTGRLDELEKAITTQNCNTKCVTIPSTCSEIWGLSTANTVDQWDTTGLYSFSEQTRSLDGRLQVSHRKGLPHVIYCRLWRWPDLHSHHELKAIENCEYAFNLKKDEVCVNPYHYQRVETPVLPPVLVPRHTEILTELPPLDDYTHSIPENTNFPAGIEPQSNYIPETPPPGYISEDGETSDQQLNQSMDTGSPAELSPTTLSPVNHSLDLQPVTYSEPAFWCSIAYYELNQRVGETFHASQPSLTVDGFTDPSNSERFCLGLLSNVNRNATVEMTRRHIGRGVRLYYIGGEVFAECLSDSAIFVQSPNCNQRYGWHPATVCKIPPGCNLKIFNNQEFAALLAQSVNQGFEAVYQLTRMCTIRMSFVKGWGAEYRRQTVTSTPCWIELHLNGPLQWLDKVLTQMGSPSVRCSSMS |
